Data on one molecule can be found in article PMC4220463, “Direct interaction of Plk4 with STIL ensures formation of a single procentriole per parental centriole” (Nature Communications, 2014).

The experiment deals with T1, MBP-5Myc-HsSAS-6 full length (human, UniProt Q6UVJ0 1-657).
T1 construct: HsSAS-6 full length, cloned into a modified pENTR-1A-5Myc-MBP vector; also called MBP-HsSAS-6; source: Sf9 (baculovirus), purified (amylose resin); not shown: MBP, N-terminal, kept; 5Myc, N-terminal, kept
T1 sequence (looked up): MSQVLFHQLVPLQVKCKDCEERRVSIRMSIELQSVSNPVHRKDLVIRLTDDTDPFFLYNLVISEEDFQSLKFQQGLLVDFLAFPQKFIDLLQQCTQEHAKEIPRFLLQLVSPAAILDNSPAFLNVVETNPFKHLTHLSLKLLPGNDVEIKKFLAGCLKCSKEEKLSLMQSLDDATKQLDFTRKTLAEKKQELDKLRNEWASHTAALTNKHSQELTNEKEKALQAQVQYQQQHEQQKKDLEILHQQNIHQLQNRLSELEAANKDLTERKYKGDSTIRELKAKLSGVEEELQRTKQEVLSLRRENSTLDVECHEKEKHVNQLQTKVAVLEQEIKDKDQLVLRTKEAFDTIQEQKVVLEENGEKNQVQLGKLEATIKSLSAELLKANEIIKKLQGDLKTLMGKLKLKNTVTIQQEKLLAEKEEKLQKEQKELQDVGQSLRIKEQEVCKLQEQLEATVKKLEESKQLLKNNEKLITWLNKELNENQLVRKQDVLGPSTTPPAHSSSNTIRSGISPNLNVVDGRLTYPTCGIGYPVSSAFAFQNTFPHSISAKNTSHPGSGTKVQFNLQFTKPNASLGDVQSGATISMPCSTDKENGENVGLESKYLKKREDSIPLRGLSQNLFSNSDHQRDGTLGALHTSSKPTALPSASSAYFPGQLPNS
Description: pull-down; bacterially purified STIL fragments after an in vitro kinase reaction with Plk4ΔPEST-FLAG on anti-FLAG beads (supernatant; for N3C also the FLAG-peptide eluate) incubated with MBP-HsSAS-6 full length and pulled down with amylose resin; western blot. The note with it: both partners purified. A general note: Immunoblotting shows a protein as a band on a membrane.

B1: STIL C fragment (a.a. 1,018–1,287) phosphorylated by Plk4ΔPEST-FLAG (domain or fragment, human, UniProt Q15468 1018-1287, looked up)
chain: NAHNVDHASVLACISPEAVISGLNCMSFANVGMSGLSPNGVDLSMEANAIALKYLNENQLSQLSVTRSNQNNCDPFSLLHINTDRSTVGLSLISPNNMSFATKKYMKRYGLLQSSDNSEDEEEPPDNADSKSEYLLNQNLRSIPEQLGGQKEPSKNDHEIINCSNCESVGTNADTPVLRNITNEVLQTKAKQQLTEKPAFLVKNLKPSPAVNLRTGKAEFTQHPEKENEGDITIFPESLQPSETLKQMNSMNSVGTFLDVKRLRQLPKLF
modifications: phosphorylated in vitro by Plk4ΔPEST-FLAG: S1061, S1116, S1181, T1238, T1250
notes: human STIL C fragment, a.a; 1,018–1,287; also called GST-HA-STIL C; C-terminal fragment of STIL; source: E. coli BL21 gold (DE3), purified (glutathione sepharose), then phosphorylated in vitro by Plk4ΔPEST-FLAG; not shown: HA, N-terminal, kept
Consider B1, for which the binding result was “binds”.
